Test results: the supplement of paper PMC7125110
± gives the standard error. This sample holds only a part of the variants without activity.

B1: glmS ribozyme (parent)
chain: AUAAAAGCGCCAGAACUACAGAAAUGUAGUUGACGAGGAGGAGGUUUAUCGAAUUUUCGGCGGAUGCCUCCAAA

Experiments:
Conditions in all cases: with glucosamine-6-phosphate
[1] = variants of: B1; assay: self-cleavage kobs at 40 uM GlcN6P; higher = faster cleavage; RNA array
In short: (§1)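 A hybridised Cy3 probe tracked barcoded ribozyme variants, transcribed in situ by E. coli RNA polymerase on sequenced MiSeq chips, at 37 °C. The variants received 40 μM to 10 mM glucosamine-6-phosphate in HEPES/KCl/Mg(OAc)2 buffer. kobs came from decay fits and kcat and KM from weighted Michaelis–Menten fits.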

[2] = variants of: B1; assay: self-cleavage kobs at 640 uM GlcN6P; higher = faster cleavage; RNA array
In short: as §1

[3] = variants of: B1; assay: self-cleavage kobs at 2500 uM GlcN6P; higher = faster cleavage; RNA array
In short: as §1

[4] = variants of: B1; assay: self-cleavage kobs at 10000 uM GlcN6P; higher = faster cleavage; RNA array
In short: as §1

[5] = variants of: B1; assay: self-cleavage kobs at 160 uM GlcN6P; higher = faster cleavage; RNA array
In short: as §1

| Variant | self-cleavage kobs at 40 uM GlcN6P [1] | self-cleavage kobs at 640 uM GlcN6P [2] | self-cleavage kobs at 2500 uM GlcN6P [3] | self-cleavage kobs at 10000 uM GlcN6P [4] | self-cleavage kobs at 160 uM GlcN6P [5] |
| --- | --- | --- | --- | --- | --- |
| A6U G7C | < 1e-05 s⁻¹ | < 1e-05 s⁻¹ | < 1e-05 s⁻¹ | < 1e-05 s⁻¹ |  |
| A6G A12U G66A | < 1e-05 s⁻¹ |  | 0.000132 ± 3.5e-05 s⁻¹ | 7.44e-05 ± 2.2e-05 s⁻¹ |  |
| G7C A39C | < 1e-05 s⁻¹ |  |  | < 1e-05 s⁻¹ | < 1e-05 s⁻¹ |
| G7C A39G | < 1e-05 s⁻¹ | < 1e-05 s⁻¹ | < 1e-05 s⁻¹ | < 1e-05 s⁻¹ | < 1e-05 s⁻¹ |
| G7C A39U | < 1e-05 s⁻¹ | < 1e-05 s⁻¹ |  | < 1e-05 s⁻¹ |  |
| A6C G40U A42C U45A G59C C61G A64U | < 1e-05 s⁻¹ |  | < 1e-05 s⁻¹ |  |  |
| A6G C8G G40A | < 1e-05 s⁻¹ |  |  | < 1e-05 s⁻¹ |  |
| A6C U46A | < 1e-05 s⁻¹ | < 1e-05 s⁻¹ |  |  | < 1e-05 s⁻¹ |
| A6C U46G | < 1e-05 s⁻¹ |  |  |  | < 1e-05 s⁻¹ |
| G7C C10U U30A U46A | < 1e-05 s⁻¹ |  |  |  |  |
| A6G A64C | < 1e-05 s⁻¹ | < 1e-05 s⁻¹ |  | < 1e-05 s⁻¹ | < 1e-05 s⁻¹ |
| G7C A52C | < 1e-05 s⁻¹ | < 1e-05 s⁻¹ | < 1e-05 s⁻¹ |  | < 1e-05 s⁻¹ |
| A6C U57G | < 1e-05 s⁻¹ | < 1e-05 s⁻¹ |  |  |  |
| A6U G13A A14U | < 1e-05 s⁻¹ |  |  | < 1e-05 s⁻¹ | < 1e-05 s⁻¹ |
| A6C C11G U30G G35U C50G C58G | 0.00011 ± 2.3e-05 s⁻¹ |  | 0.000242 ± 4.4e-05 s⁻¹ | 0.000175 ± 5.1e-05 s⁻¹ |  |
| A6C G37A | < 1e-05 s⁻¹ |  | < 1e-05 s⁻¹ | < 1e-05 s⁻¹ | < 1e-05 s⁻¹ |
| A6U G13U U47A | < 1e-05 s⁻¹ |  |  |  |  |
| A6G G60U C68A | < 1e-05 s⁻¹ | < 1e-05 s⁻¹ | < 1e-05 s⁻¹ | < 1e-05 s⁻¹ |  |
| G7C C10A | < 1e-05 s⁻¹ |  | < 1e-05 s⁻¹ | < 1e-05 s⁻¹ |  |
| A6G G35C | < 1e-05 s⁻¹ | < 1e-05 s⁻¹ | < 1e-05 s⁻¹ | < 1e-05 s⁻¹ | < 1e-05 s⁻¹ |
| A6U G35A | < 1e-05 s⁻¹ | < 1e-05 s⁻¹ |  |  | < 1e-05 s⁻¹ |
| A6U A36U | < 1e-05 s⁻¹ | < 1e-05 s⁻¹ | < 1e-05 s⁻¹ | < 1e-05 s⁻¹ | < 1e-05 s⁻¹ |
| A6G A33G G35U C68G C70U | 6.36e-05 ± 1.8e-05 s⁻¹ |  |  | 0.000167 ± 3.1e-05 s⁻¹ |  |

| Variant | self-cleavage kobs at 40 uM GlcN6P [1] | self-cleavage kobs at 640 uM GlcN6P [2] | self-cleavage kobs at 2500 uM GlcN6P [3] | self-cleavage kobs at 10000 uM GlcN6P [4] | self-cleavage kobs at 160 uM GlcN6P [5] |
| --- | --- | --- | --- | --- | --- |
| A6U A36U C70U | < 1e-05 s⁻¹ |  |  |  |  |
| A6U C11U C16A U30C C50G | 0.000167 ± 2.9e-05 s⁻¹ |  | 0.000224 ± 9e-05 s⁻¹ | 0.000181 ± 2.9e-05 s⁻¹ |  |
| G7A A12G U30C U49A C71U | < 1e-05 s⁻¹ |  |  |  |  |
| A6G G13U G38U G40U | < 1e-05 s⁻¹ |  |  | < 1e-05 s⁻¹ |  |
| G7A G43U | < 1e-05 s⁻¹ | < 1e-05 s⁻¹ | < 1e-05 s⁻¹ | < 1e-05 s⁻¹ | < 1e-05 s⁻¹ |
| A6G C11A C50G C58U | 0.000139 ± 2.5e-05 s⁻¹ |  |  |  |  |
| A6G U30G G35U U45C G59U | < 1e-05 s⁻¹ |  |  | < 1e-05 s⁻¹ |  |
| G7C A33G | < 1e-05 s⁻¹ | < 1e-05 s⁻¹ |  | < 1e-05 s⁻¹ | < 1e-05 s⁻¹ |
| G7C A33U | < 1e-05 s⁻¹ |  | < 1e-05 s⁻¹ | < 1e-05 s⁻¹ | < 1e-05 s⁻¹ |
| G7A C16A U31C G32U G41C | < 1e-05 s⁻¹ |  |  |  |  |
| A6U G62C | < 1e-05 s⁻¹ | < 1e-05 s⁻¹ | < 1e-05 s⁻¹ |  |  |
| G7A G59A | < 1e-05 s⁻¹ | < 1e-05 s⁻¹ | < 1e-05 s⁻¹ | < 1e-05 s⁻¹ | < 1e-05 s⁻¹ |
| G7C C58U | < 1e-05 s⁻¹ |  | < 1e-05 s⁻¹ | < 1e-05 s⁻¹ |  |
| A6C G7C A42C C71U | < 1e-05 s⁻¹ |  |  | < 1e-05 s⁻¹ |  |
| A6C U30G G51A U65G | < 1e-05 s⁻¹ |  |  | < 1e-05 s⁻¹ |  |
| A6G G63A | < 1e-05 s⁻¹ | < 1e-05 s⁻¹ | < 1e-05 s⁻¹ | < 1e-05 s⁻¹ | < 1e-05 s⁻¹ |
| A6U C11A A53U | < 1e-05 s⁻¹ | < 1e-05 s⁻¹ |  | < 1e-05 s⁻¹ |  |
| A6G C16G G66C | < 1e-05 s⁻¹ |  |  |  |  |
| G7A U30A | < 1e-05 s⁻¹ |  | < 1e-05 s⁻¹ |  | < 1e-05 s⁻¹ |
| A6G A14U U65G | < 1e-05 s⁻¹ |  |  |  |  |
| G7A A14C G40A U49A C71U | < 1e-05 s⁻¹ |  |  |  |  |
| G7A A15G G51U C58G A64U C70A | 0.000522 ± 0.00019 s⁻¹ |  |  | 0.000462 ± 0.00017 s⁻¹ |  |
